From patent US20030176331A1

Target: high molecular weight glycoprotein gp240 on melanoma cells (human) (UniProt Q6UVK1)
Test: cell-based or functional assay

UniProt Q6UVK1, sequence (Q6UVK1 30-2322): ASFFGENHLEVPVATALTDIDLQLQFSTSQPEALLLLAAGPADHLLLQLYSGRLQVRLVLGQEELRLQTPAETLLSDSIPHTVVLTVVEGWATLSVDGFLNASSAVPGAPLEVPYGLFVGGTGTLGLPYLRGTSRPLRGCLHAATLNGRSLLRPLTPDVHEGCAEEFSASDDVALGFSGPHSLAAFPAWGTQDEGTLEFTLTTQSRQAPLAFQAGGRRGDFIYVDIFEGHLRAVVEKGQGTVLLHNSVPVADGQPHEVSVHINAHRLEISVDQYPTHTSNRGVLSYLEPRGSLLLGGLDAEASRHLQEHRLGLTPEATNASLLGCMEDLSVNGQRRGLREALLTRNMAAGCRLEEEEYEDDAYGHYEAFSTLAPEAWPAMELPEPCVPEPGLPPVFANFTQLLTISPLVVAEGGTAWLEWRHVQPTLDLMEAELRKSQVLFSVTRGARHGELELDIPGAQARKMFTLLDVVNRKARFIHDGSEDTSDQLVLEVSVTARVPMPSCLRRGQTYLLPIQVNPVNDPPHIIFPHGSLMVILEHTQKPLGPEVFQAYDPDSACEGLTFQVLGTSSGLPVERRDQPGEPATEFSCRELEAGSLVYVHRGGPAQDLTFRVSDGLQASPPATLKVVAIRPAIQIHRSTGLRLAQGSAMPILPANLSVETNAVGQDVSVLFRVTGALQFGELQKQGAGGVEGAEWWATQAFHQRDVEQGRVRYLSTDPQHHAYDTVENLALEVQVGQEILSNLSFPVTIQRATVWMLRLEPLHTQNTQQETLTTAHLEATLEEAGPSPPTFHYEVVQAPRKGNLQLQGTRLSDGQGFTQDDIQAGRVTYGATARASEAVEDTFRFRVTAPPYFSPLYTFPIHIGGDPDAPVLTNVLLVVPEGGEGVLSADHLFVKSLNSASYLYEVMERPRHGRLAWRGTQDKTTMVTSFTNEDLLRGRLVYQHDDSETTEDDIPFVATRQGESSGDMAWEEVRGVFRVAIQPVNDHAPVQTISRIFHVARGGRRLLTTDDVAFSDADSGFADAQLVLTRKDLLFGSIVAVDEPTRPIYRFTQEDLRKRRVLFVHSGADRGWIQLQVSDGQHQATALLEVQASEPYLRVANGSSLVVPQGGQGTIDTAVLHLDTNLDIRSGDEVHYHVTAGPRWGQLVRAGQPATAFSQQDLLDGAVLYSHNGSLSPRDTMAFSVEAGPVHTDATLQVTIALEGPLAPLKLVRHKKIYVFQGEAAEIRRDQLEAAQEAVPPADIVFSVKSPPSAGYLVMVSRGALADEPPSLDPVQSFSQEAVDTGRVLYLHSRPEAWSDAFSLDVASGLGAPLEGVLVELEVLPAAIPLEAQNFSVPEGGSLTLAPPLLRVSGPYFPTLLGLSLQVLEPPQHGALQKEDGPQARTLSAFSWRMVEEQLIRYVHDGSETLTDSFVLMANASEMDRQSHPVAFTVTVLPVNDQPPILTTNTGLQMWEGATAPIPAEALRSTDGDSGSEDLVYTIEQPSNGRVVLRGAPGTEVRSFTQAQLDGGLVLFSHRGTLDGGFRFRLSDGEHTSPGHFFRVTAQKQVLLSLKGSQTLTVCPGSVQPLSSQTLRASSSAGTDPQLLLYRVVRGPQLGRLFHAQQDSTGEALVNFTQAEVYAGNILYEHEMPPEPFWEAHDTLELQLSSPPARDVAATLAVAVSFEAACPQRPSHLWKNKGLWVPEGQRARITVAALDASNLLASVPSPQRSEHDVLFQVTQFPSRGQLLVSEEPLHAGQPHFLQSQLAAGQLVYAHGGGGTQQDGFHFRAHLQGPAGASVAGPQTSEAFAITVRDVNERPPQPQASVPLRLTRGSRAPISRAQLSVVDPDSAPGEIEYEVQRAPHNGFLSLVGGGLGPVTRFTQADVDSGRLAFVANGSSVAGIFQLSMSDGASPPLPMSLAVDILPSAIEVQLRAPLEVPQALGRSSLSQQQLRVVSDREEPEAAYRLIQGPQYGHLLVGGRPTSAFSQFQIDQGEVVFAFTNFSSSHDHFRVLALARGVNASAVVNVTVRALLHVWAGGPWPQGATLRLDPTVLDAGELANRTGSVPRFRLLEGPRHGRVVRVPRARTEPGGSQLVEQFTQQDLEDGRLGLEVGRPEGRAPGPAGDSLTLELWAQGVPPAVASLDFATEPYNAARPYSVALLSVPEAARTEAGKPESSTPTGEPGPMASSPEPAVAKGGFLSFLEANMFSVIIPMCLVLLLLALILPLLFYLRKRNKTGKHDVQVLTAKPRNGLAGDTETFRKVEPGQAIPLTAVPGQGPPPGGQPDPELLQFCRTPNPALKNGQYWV

Substance	IC50, 72 h in vitro cytotoxicity on antigen-positive A375 human melanoma cells [nM]
IgG ZME-018-gelonin chemical conjugate	8
scfvMEL/rGel fusion construct	8
